Here are results for 94 variants from the supplement of paper PMC10567573.

B1: CCNC (parent)
chain: QSSHYLQWILDKQDLLKERQKDLK
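Further: lentivirally expressed fusions sorted by FACS into six bins by GFP to DsRed ratio, PSI derived from sequencing read proportions per bin multiplied by bin number.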

In the data set the parent is B1. The experiment in a line: protein stability index of a GFP-peptide fusion (GPS, HEK-293T) (PSI 1-6); higher = more stable. The note with it: c terminus: a fixed tail appended.
On to QSSHYLQWILDKQDLLKEVQKDLK [R19V], for which the protein stability index was found to be 2.19.

Turning to QSSHYLQWILDKQDLLKEPQKDLK [R19P], the protein stability index came out at 3.56.

Take QSSHYLQWILDKQDLLKEMQKDLK [R19M]: the protein stability index worked out at 2.12.

Turning to QSSHYLQWILDKQDLLKEDQKDLK [R19D], the protein stability index was found to be 3.93.

Consider QSSHYLQWILDMQDLLKERQKDLK [K12M], for which the protein stability index was found to be 1.92.

As to QSSHYLQWILDDQDLLKERQKDLK [K12D], the protein stability index turned out to be 4.21.

As for QSSHYLQWILDHQDLLKERQKDLK [K12H], the protein stability index worked out at 2.83.

Take QSSHYLQWILDAQDLLKERQKDLK [K12A]: the protein stability index worked out at 2.73.

QSSHYLQWILDYQDLLKERQKDLK [K12Y]: the protein stability index is 2.75.

For the variant QSSHYLQWILDQQDLLKERQKDLK [K12Q], the protein stability index worked out at 3.25.

In the case of QSSHYLQWILDFQDLLKERQKDLK [K12F], the protein stability index was determined as 2.25.

Consider QSSHYLQWILDWQDLLKERQKDLK [K12W], for which the protein stability index worked out at 1.52.

Regarding QSSHYLQWILDTQDLLKERQKDLK [K12T], the protein stability index turned out to be 2.01.

Consider QSSHYLQWILDEQDLLKERQKDLK [K12E], for which the protein stability index is 3.66.

Turning to QSSHYLQWILDPQDLLKERQKDLK [K12P], the protein stability index worked out at 3.29.

On to QSSHYLQWILDSQDLLKERQKDLK [K12S], for which the protein stability index amounted to 1.98.

For QSSHYLQWILDCQDLLKERQKDLK [K12C], the protein stability index was 2.46.

In the case of QSSHYLQWILDNQDLLKERQKDLK [K12N], the protein stability index was 2.79.

For QSSHYLQWILDVQDLLKERQKDLK [K12V], the protein stability index amounted to 2.34.

As for QSSHYLQWILDIQDLLKERQKDLK [K12I], the protein stability index was found to be 1.71.

Regarding QSSHYLQWILDLQDLLKERQKDLK [K12L], the protein stability index turned out to be 1.72.

QSSHYLQWILDGQDLLKERQKDLK [K12G]: the protein stability index amounted to 2.41.

As for QSSHYLQWILDKYDLLKERQKDLK [Q13Y], the protein stability index was determined as 2.42.

With QSSHYLQWILDKRDLLKERQKDLK [Q13R], the protein stability index stood at 2.6.

Regarding QSSHYLQWILDKWDLLKERQKDLK [Q13W], the protein stability index worked out at 2.36.

Regarding QSSHYLQWILDKIDLLKERQKDLK [Q13I], the protein stability index was 2.59.

Take QSSHYLQWILDKADLLKERQKDLK [Q13A]: the protein stability index came out at 2.74.

Turning to QSSHYLQWILDKLDLLKERQKDLK [Q13L], the protein stability index was determined as 1.85.

Turning to QSSHYLQWILDKVDLLKERQKDLK [Q13V], the protein stability index was determined as 2.76.

Turning to QSSHYLQWILDKTDLLKERQKDLK [Q13T], the protein stability index stood at 2.7.

With QSSHYLQWILDKNDLLKERQKDLK [Q13N], the protein stability index worked out at 3.74.

As to QSSHYLQWILDKGDLLKERQKDLK [Q13G], the protein stability index was 2.94.

As for QSSHYLQWILDKSDLLKERQKDLK [Q13S], the protein stability index amounted to 2.91.

On to QSSHYLQWILDKHDLLKERQKDLK [Q13H], for which the protein stability index was 2.5.

In the case of QSSHYLQWILDKMDLLKERQKDLK [Q13M], the protein stability index was determined as 2.

With QSSHYLQWILDKKDLLKERQKDLK [Q13K], the protein stability index was 3.49.

In the case of QSSHYLQWILDKPDLLKERQKDLK [Q13P], the protein stability index worked out at 3.36.

Consider QSSHYLQWILDKFDLLKERQKDLK [Q13F], for which the protein stability index turned out to be 2.34.

On to QSSHYLQWILDKEDLLKERQKDLK [Q13E], for which the protein stability index came to 2.71.

For the variant QSSHYLQWILDKCDLLKERQKDLK [Q13C], the protein stability index worked out at 3.1.

Regarding QSSHYLQWILDKDDLLKERQKDLK [Q13D], the protein stability index came to 3.82.

Regarding QSSHYLQWILDKQDLLKERQLDLK [K21L], the protein stability index came to 2.43.

As to QSSHYLQWILDKQDLLKERQTDLK [K21T], the protein stability index was determined as 3.28.

Take QSSHYLQWILDKQDLLKERQIDLK [K21I]: the protein stability index was 3.01.

Regarding QSSHYLQWILDKQDLLKERQADLK [K21A], the protein stability index was 2.78.

Turning to QSSHYLQWILDKQDLLKERQCDLK [K21C], the protein stability index came to 2.42.

Turning to QSSHYLQWILDKQDLLKERQFDLK [K21F], the protein stability index turned out to be 1.69.

Regarding QSSHYLQWILDKQDLLKERQQDLK [K21Q], the protein stability index turned out to be 3.02.

For the variant QSSHYLQWILDKQDLLKERQPDLK [K21P], the protein stability index stood at 3.42.

As for QSSHYLQWILDKQDLLKERQRDLK [K21R], the protein stability index came out at 4.05.

On to QSSHYLQWILDKQDLLKERQMDLK [K21M], for which the protein stability index amounted to 2.9.

As for QSSHYLQWILDKQDLLKERQNDLK [K21N], the protein stability index was determined as 2.57.

On to QSSHYLQWILDKQDLLKERQGDLK [K21G], for which the protein stability index turned out to be 2.87.

For the variant QSSHYLQWILDKQDLLKERQEDLK [K21E], the protein stability index was found to be 2.99.

On to QSSHYLQWILDKQDLLKERQSDLK [K21S], for which the protein stability index was 2.84.

Take QSSHYLQWILDKQDLLKERQHDLK [K21H]: the protein stability index turned out to be 2.45.

With QSSHYLQWILDKQDLLKERQDDLK [K21D], the protein stability index was 2.83.

QSSHYLQWILDKQDLWKERQKDLK [L16W]: the protein stability index turned out to be 2.92.

QSSHYLQWILDKQDLIKERQKDLK [L16I]: the protein stability index came out at 3.64.

As to QSSHYLQWILDKQDLNKERQKDLK [L16N], the protein stability index was determined as 4.

As for QSSHYLQWILDKQDLFKERQKDLK [L16F], the protein stability index turned out to be 3.23.

Consider QSSHYLQWILDKQDLTKERQKDLK [L16T], for which the protein stability index was 3.73.

Turning to QSSHYLQWILDKQDLAKERQKDLK [L16A], the protein stability index stood at 3.74.

QSSHYLQWILDKQDLEKERQKDLK [L16E]: the protein stability index came out at 4.

With QSSHYLQWILDKQDLSKERQKDLK [L16S], the protein stability index was found to be 4.05.

As for QSSHYLQWILDKQDLCKERQKDLK [L16C], the protein stability index is 3.52.

Take QSSHYLQWILDKQDLMKERQKDLK [L16M]: the protein stability index came out at 2.52.

For the variant QSSHYLQWILDKQDLPKERQKDLK [L16P], the protein stability index turned out to be 4.26.

As for QSSHYLQWILDKQDLGKERQKDLK [L16G], the protein stability index stood at 3.43.

For the variant QSSHYLQWILDKQDLYKERQKDLK [L16Y], the protein stability index was found to be 2.57.

On to QSSHYLQWILDKQDLHKERQKDLK [L16H], for which the protein stability index was 4.

On to QSSHYLQWILDKQDLDKERQKDLK [L16D], for which the protein stability index worked out at 3.58.

On to QSSHYLQWILDKQDLKKERQKDLK [L16K], for which the protein stability index was 3.54.

Turning to QSSHYLQWILDKQDLQKERQKDLK [L16Q], the protein stability index was found to be 4.15.

QSSHYLQWILDKQDLRKERQKDLK [L16R]: the protein stability index was determined as 3.78.

As for QSSHYLQWILDKQDLVKERQKDLK [L16V], the protein stability index amounted to 4.04.

Consider QSSHYLQWILDKQDWLKERQKDLK [L15W], for which the protein stability index stood at 3.37.

With QSSHYLQWILDKQDELKERQKDLK [L15E], the protein stability index amounted to 4.08.

On to QSSHYLQWILDKQDPLKERQKDLK [L15P], for which the protein stability index is 3.93.

As for QSSHYLQWILDKQDYLKERQKDLK [L15Y], the protein stability index was 2.8.

Regarding QSSHYLQWILDKQDVLKERQKDLK [L15V], the protein stability index amounted to 3.11.

For QSSHYLQWILDKQDILKERQKDLK [L15I], the protein stability index came to 3.11.

With QSSHYLQWILDKQDNLKERQKDLK [L15N], the protein stability index is 3.33.

Take QSSHYLQWILDKQDKLKERQKDLK [L15K]: the protein stability index was determined as 3.66.

Turning to QSSHYLQWILDKQDCLKERQKDLK [L15C], the protein stability index was determined as 3.21.

For the variant QSSHYLQWILDKQDALKERQKDLK [L15A], the protein stability index amounted to 4.19.

Turning to QSSHYLQWILDKQDRLKERQKDLK [L15R], the protein stability index is 2.78.

In the case of QSSHYLQWILDKQDTLKERQKDLK [L15T], the protein stability index worked out at 3.72.

On to QSSHYLQWILDKQDSLKERQKDLK [L15S], for which the protein stability index came out at 3.44.

For QSSHYLQWILDKQDQLKERQKDLK [L15Q], the protein stability index is 3.94.

For QSSHYLQWILDKQDDLKERQKDLK [L15D], the protein stability index turned out to be 3.47.

Take QSSHYLQWILDKQDHLKERQKDLK [L15H]: the protein stability index was determined as 3.72.

QSSHYLQWILDKQDGLKERQKDLK [L15G]: the protein stability index is 3.44.

Regarding QSSHYLQWILDKQDFLKERQKDLK [L15F], the protein stability index was 2.54.
